# Data as given in patent US20190367620A1 (Merck KGaA, published 2019).
# Positions count from the first letter of the chain named.
# T1: FGFR1 D2 point mutant E47A (human, UniProt P11362 22-254)
# T1 chain: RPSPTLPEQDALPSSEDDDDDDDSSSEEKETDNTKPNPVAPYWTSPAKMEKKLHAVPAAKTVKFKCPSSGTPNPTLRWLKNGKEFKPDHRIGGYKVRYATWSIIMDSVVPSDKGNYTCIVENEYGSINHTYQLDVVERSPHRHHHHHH
# T2: FGFR1 D2 point mutant L53A (human, UniProt P11362 22-254)
# T2 chain: T1 chain with A47E, L53A
# T3: FGFR1 D2 point mutant H54A (human, UniProt P11362 22-254)
# T3 chain: T1 chain with A47E, H54A
# T4: FGFR1 D2 point mutant A55G (human, UniProt P11362 22-254)
# T4 chain: T1 chain with A47E, A55G
# T5: FGFR1 D2 point mutant A59G (human, UniProt P11362 22-254)
# T5 chain: T1 chain with A47E, A59G
# T6: FGFR1 D2 point mutant K65A (human, UniProt P11362 22-254)
# T6 chain: T1 chain with A47E, K65A
# T7: FGFR1 D2 point mutant P87A (human, UniProt P11362 22-254)
# T7 chain: T1 chain with A47E, P87A
# T8: FGFR1 D2 point mutant I91A (human, UniProt P11362 22-254)
# T8 chain: T1 chain with A47E, I91A
# T9: FGFR1 D2 point mutant Y94A (human, UniProt P11362 22-254)
# T9 construct: Uncharacteristic melting curve
# T9 chain: T1 chain with A47E, Y94A
# T10: FGFR1 D2 point mutant A99G (human, UniProt P11362 22-254)
# T10 chain: T1 chain with A47E, A99G
# T11: FGFR1 D2 point mutant T100A (human, UniProt P11362 22-254)
# T11 chain: T1 chain with A47E, T100A
# B1: mAb #A08 (antibody, V domains shown)
# VH: EVQLQESGPGLVKPSGTLSLTCAVSGGSISSNNWWSWVRQPPGKGLEWIGEIYHSGSTSYNPSLKSRVTISVDKSKNQFSLKLNSVTAADTAVYYCARGTDWFDPWGQGTLVTVSS
# VL: QAVLTQPPSVSVAPGQTARITCGGNNIGSESVHWYQQKPGQAPVLVVYDDSDRPSGIPERFSGSNSGNTATLTISRVEAGDEADYYCQVWDSTSDHRVFGGGTKLTVL
# notes: Only variable domains are tied to the name mAb #A08 (hit); also called #A08 hit; mAb #08
# Columns and labels:
# Assay in all cases: SPR as in Example 1.8
# [1] = target: T1, FGFR1 D2 point mutant E47A
# Description: (§1) Binding affinities of anti-FGFR1 antibodies to FGFR1 were measured by Surface Plasmon Resonance (SPR) using a GE Healthcare BIAcore 4000 instrument as follows. Goat anti-human Fc antibody (Jackson ImmunoResearch Laboratories #109-005-098) was first immobilized on BIAcore carboxymethylated dextran CM5 chip using direct coupling to free amino groups following the procedure described by the manufacturer. Antibodies were then captured on the CM5 biosensor chip to achieve approximately 200 response units (RU). Binding measurements were performed using the running HBS-EP+ buffer. A 2-fold dilution series of His-tagged FGFR1 proteins were injected at a flow rate of 30 μl/min at 25° C. Association rates (kₒₙ, per mol/s) and dissociation rates (koff, per s) were calculated using a simple 1:1 Langmuir binding model (Biacore 4000 Evaluation Software). The equilibrium dissociation constant (KD, mol) was calculated as the ratio of koff/kₒₙ.
# (§2) To obtain a finer, residue-level mapping of the epitope and to complement the HD exchange data, molecular modelling and manual inspection of the crystal structure of FGFR1 [(Beenken et al. 2012); PDB record 3OJV] was used to select solvent exposed residues within and around the epitope identified by HD exchange. The selected residues were mutated either to alanine (large to small) or to glycine if the selected residue was alanine. In total 35 point mutants were designed, expressed and purified in HEK cells, and tested for binding to mAb #A08 using surface plasmon resonance as described in Example 1.8. The affinity of the antibody for wild-type and each mutant was determined and used to calculate the contribution of each epitope residue to the binding energy.
# [2] = target: T2, FGFR1 D2 point mutant L53A
# Description: as §1, §2
# [3] = target: T3, FGFR1 D2 point mutant H54A
# Description: as §1, §2
# [4] = target: T4, FGFR1 D2 point mutant A55G
# Description: as §1, §2
# [5] = target: T5, FGFR1 D2 point mutant A59G
# Description: as §1, §2
# [6] = target: T6, FGFR1 D2 point mutant K65A
# Description: as §1, §2
# [7] = target: T7, FGFR1 D2 point mutant P87A
# Description: as §1, §2
# [8] = target: T8, FGFR1 D2 point mutant I91A
# Description: as §1, §2
# [9] = target: T9, FGFR1 D2 point mutant Y94A
# Description: as §1, §2
# [10] = target: T10, FGFR1 D2 point mutant A99G
# Description: as §1, §2
# [11] = target: T11, FGFR1 D2 point mutant T100A
# Description: as §1, §2
binder,measurement,setting,value
B1,Kd,[1],0.26 nM
same,Kd,[2],0.29 nM
same,Kd,[3],0.36 nM
same,Kd,[4],0.22 nM
same,Kd,[5],3.91 nM
same,Kd,[6],0.18 nM
same,Kd,[7],0.22 nM
same,Kd,[8],0.19 nM
same,Kd,[9],0.99 nM
same,Kd,[10],0.18 nM
same,Kd,[11],0.24 nM
